Legend:
[1] = test system: T1, RovS (Streptococcus agalactiae NEM316), ORF:d252635c; experiment: EMSA
T1 sequence: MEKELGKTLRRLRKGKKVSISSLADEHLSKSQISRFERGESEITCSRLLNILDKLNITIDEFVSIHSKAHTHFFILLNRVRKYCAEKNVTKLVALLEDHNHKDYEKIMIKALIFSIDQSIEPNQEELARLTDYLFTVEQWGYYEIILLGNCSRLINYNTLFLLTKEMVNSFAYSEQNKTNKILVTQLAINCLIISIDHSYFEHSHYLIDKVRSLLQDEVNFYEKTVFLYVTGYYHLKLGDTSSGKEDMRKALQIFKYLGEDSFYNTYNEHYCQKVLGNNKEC

[2] = test system: T1, RovS (Streptococcus agalactiae NEM316), ORF:d252635c; experiment: competition

Sequence | binding ([1]; part of the binding motif deleted) | binding [2] | binding [1]
CTAACTTTTTTTCCTTTACGTAATCTTCTTAGTGTTTTTCCTAATTCTTTTTCCATTTTTATTTAAAAGACCCTTTAAATCCATTATATAATACAAGTACAAAATAGAAAATCAGAAAGG (double strand) [Pshp without the motif probe] | no binding |  | 
ATTAGTGACTTCTTTCATTGAAAATGATAGAATATAGGTGTATGGGAAACTTCCCAAAAATATTTAAGGAGATGTTTAGAAATGACTGCAACTAAACAACATAAAAAAGTTATCCTCGTTGGTGATGGTG (double strand) [PldhL probe] |  | no binding | no binding
GCAATTTATTATTAATTTGTATGTTTAAAATTAAATAGTTGATATCTAAAACATGATATTTTTAAATTTTCCTTTAATATTATAAAGCATGATAGATAGTCATACTAACATTAAGATTTACAATGAGGTAATAGTATATT (double strand) [PfbsA probe] |  |  | no binding

Source: paper PMC4324310
